Data from article PMC4989518, “In situ expression of (R)-carbonyl reductase rebalancing an asymmetric pathway improves stereoconversion efficiency of racemic mixture to (S)-phenyl-1,2-ethanediol in Candida parapsilosis CCTCC M203011” (Microbial Cell Factories, 2016).

Test system: OC[C@H](O)c1ccccc1
Assay: purified protein
Details: oxidation to 2-HAP, NAD+, 100 mM acetate pH 6.5, 35 °C, enzyme from C. parapsilosis/pCP-rcr

“recombinant RCR (C. parapsilosis/pCP-rcr) (Lodderomyces parapsilosis)” gave a Km of 6.31 ± 0.09 mM, a kcat of 3.19 ± 0.22 s⁻¹ and a kcat/Km of 510 M⁻¹ s⁻¹.
